B1: sgRNA 2.7.9 ; 7.9 target (ssRNA ; dsDNA)
RNA: UACUGGCGCUUUUAUCUCAUUACUUUGAGAGCCAUCACCAGCGACUAUGUCGUAUGGGUAAAGCGCUUAUUUAUCGGAGAGAAAUCCGAUAAAUAAGAAGCAUCAAAGGUGUAGUACAAGAGAUAGAA
DNA 1: TTTCAGTGGGGGTGAATTCAGTGTAGTACAAGAGATAGAAAGACCAGTCCTTGCTGAAAG
DNA 2: CTTTCAGCAAGGACTGGTCTTTCTATCTCTTGTACTACACTGAATTCACCCCCACTGAAA
modifications: 5' amino modifier C6
B2: sgRNA 174.7.9 ; 7.9 target (ssRNA ; dsDNA)
RNA: ACUGGCGCUUUUAUCUGAUUACUUUGAGAGCCAUCACCAGCGACUAUGUCGUAGUGGGUAAAGCUCCCUCUUCGGAGGGAGCAUCAAAGGUGUAGUACAAGAGAUAGAA
DNA 1: TTTCAGTGGGGGTGAATTCAGTGTAGTACAAGAGATAGAAAGACCAGTCCTTGCTGAAAG
DNA 2: CTTTCAGCAAGGACTGGTCTTTCTATCTCTTGTACTACACTGAATTCACCCCCACTGAAA
modifications: 5' amino modifier C6
B3: sgRNA 235.7.9 ; 7.9 target (ssRNA ; dsDNA)
RNA: ACUGGCGCUUCUAUCUGAUUACUCUGAGCGCCAUCACCAGCGACUAUGUCGUAGUGGGUAAAGCCGCUUACGGACUUCGGUCCGUAAGAGGCAUCAGAGGUGUAGUACAAGAGAUAGAA
DNA 1: TTTCAGTGGGGGTGAATTCAGTGTAGTACAAGAGATAGAAAGACCAGTCCTTGCTGAAAG
DNA 2: CTTTCAGCAAGGACTGGTCTTTCTATCTCTTGTACTACACTGAATTCACCCCCACTGAAA
modifications: 5' amino modifier C6
B4: sgRNA 316.7.9 ; 7.9 target (ssRNA ; dsDNA)
RNA: ACUGGCGCUUCUAUCUGAUUACUCUGAGCGCCAUCACCAGCGACUAUGUCGUAGUGGGUAAAGCUCCCUCUUCGGAGGGAGCAUCAGAGGUGUAGUACAAGAGAUAGAA
DNA 1: TTTCAGTGGGGGTGAATTCAGTGTAGTACAAGAGATAGAAAGACCAGTCCTTGCTGAAAG
DNA 2: CTTTCAGCAAGGACTGGTCTTTCTATCTCTTGTACTACACTGAATTCACCCCCACTGAAA
modifications: 5' amino modifier C6
B5: sgRNA 2.7.37 ; 7.37 target (ssRNA ; dsDNA)
RNA: UACUGGCGCUUUUAUCUCAUUACUUUGAGAGCCAUCACCAGCGACUAUGUCGUAUGGGUAAAGCGCUUAUUUAUCGGAGAGAAAUCCGAUAAAUAAGAAGCAUCAAAGGGCCGAGAUGUCUCGCUCCG
DNA 1: TGAAGCTGACAGCATTCGGGCCGAGATGTCTCGCTCCGTGGCCTTAGCTGTGCTCGCGCT
DNA 2: AGCGCGAGCACAGCTAAGGCCACGGAGCGAGACATCTCGGCCCGAATGCTGTCAGCTTCA
modifications: 5' amino modifier C6
B6: sgRNA 174.7.37 ; 7.37 target (ssRNA ; dsDNA)
RNA: ACUGGCGCUUUUAUCUGAUUACUUUGAGAGCCAUCACCAGCGACUAUGUCGUAGUGGGUAAAGCUCCCUCUUCGGAGGGAGCAUCAAAGGGCCGAGAUGUCUCGCUCCG
DNA 1: TGAAGCTGACAGCATTCGGGCCGAGATGTCTCGCTCCGTGGCCTTAGCTGTGCTCGCGCT
DNA 2: AGCGCGAGCACAGCTAAGGCCACGGAGCGAGACATCTCGGCCCGAATGCTGTCAGCTTCA
modifications: 5' amino modifier C6
B7: sgRNA 316.7.37 ; 7.37 target (ssRNA ; dsDNA)
RNA: ACUGGCGCUUCUAUCUGAUUACUCUGAGCGCCAUCACCAGCGACUAUGUCGUAGUGGGUAAAGCUCCCUCUUCGGAGGGAGCAUCAGAGGGCCGAGAUGUCUCGCUCCG
DNA 1: TGAAGCTGACAGCATTCGGGCCGAGATGTCTCGCTCCGTGGCCTTAGCTGTGCTCGCGCT
DNA 2: AGCGCGAGCACAGCTAAGGCCACGGAGCGAGACATCTCGGCCCGAATGCTGTCAGCTTCA
modifications: 5' amino modifier C6
B8: sgRNA 235.7.37 ; 7.37 target (ssRNA ; dsDNA)
RNA: ACUGGCGCUUCUAUCUGAUUACUCUGAGCGCCAUCACCAGCGACUAUGUCGUAGUGGGUAAAGCCGCUUACGGACUUCGGUCCGUAAGAGGCAUCAGAGGGCCGAGAUGUCUCGCUCCG
DNA 1: TGAAGCTGACAGCATTCGGGCCGAGATGTCTCGCTCCGTGGCCTTAGCTGTGCTCGCGCT
DNA 2: AGCGCGAGCACAGCTAAGGCCACGGAGCGAGACATCTCGGCCCGAATGCTGTCAGCTTCA
modifications: 5' amino modifier C6

The data set concerns the target T1, CasX variant 515 (synthetic construct).
T1 chain: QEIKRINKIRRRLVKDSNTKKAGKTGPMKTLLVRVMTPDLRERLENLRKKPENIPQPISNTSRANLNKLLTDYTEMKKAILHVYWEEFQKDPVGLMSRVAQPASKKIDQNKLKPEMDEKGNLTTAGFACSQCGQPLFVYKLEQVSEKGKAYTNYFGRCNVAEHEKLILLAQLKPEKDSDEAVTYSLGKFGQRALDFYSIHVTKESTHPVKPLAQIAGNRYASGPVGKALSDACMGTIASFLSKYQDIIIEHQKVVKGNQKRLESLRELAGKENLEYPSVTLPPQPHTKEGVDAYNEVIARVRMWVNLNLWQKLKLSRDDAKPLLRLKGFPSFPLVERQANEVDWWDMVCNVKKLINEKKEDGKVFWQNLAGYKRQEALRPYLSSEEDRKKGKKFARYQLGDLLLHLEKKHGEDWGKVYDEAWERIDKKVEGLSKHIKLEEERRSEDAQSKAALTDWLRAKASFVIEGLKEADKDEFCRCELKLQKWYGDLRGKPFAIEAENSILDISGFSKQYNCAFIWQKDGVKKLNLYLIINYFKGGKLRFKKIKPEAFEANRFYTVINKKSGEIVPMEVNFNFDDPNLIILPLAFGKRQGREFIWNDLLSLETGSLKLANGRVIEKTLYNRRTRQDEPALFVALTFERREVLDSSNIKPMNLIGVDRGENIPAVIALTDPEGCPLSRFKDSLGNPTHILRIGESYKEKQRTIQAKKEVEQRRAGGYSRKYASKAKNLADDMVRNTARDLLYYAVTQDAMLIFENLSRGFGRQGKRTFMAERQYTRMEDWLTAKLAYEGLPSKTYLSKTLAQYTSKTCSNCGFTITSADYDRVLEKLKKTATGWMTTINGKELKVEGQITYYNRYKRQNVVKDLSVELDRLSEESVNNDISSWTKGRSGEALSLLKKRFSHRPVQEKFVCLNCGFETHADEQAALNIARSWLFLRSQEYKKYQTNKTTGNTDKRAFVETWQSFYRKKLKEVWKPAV
Nature of the data set: cleavage_in_vitro.
As for B1, the activity was 0.135 s⁻¹.
The value for B2 was 0.172 s⁻¹; that for B3 was 0.17 s⁻¹.
To B4 belongs 0.141 s⁻¹; to B5, 0.0204 s⁻¹.
B6: the activity turned out to be 0.0534 s⁻¹.
The molecule B7 came in with an activity of 0.0851 s⁻¹.
The value for B8 was 0.0647 s⁻¹.

For the origin of these results see patent US20250361525, “AAV VECTORS FOR GENE EDITING” (Scribe Therapeutics Inc., published 2025).
